B1: ADI-14380 (antibody, V domains shown)
VH: QVQLVQSGAEVKKPGESLKISCKGSGYTFTSYWIGWVRQLPGKGLEWMGVIFPGDSDTRYSPSFQGQVTISADKSISTAYLQWSSLKAADTAMYYCARTRLGRGFYRFDSWGQGTLVTVSS
VL: QSVLTQPPSVSAAPGQKVTISCSGSSSNIGNNYVSWYQQLPGTAPRLLIYENNERPSGIPDRFSGSKSGTSATLGITGLQTGDEADYYCATWDSGLSAGYVFGTGTKLTVL
notes: full-length IgG; also called Ab 48
B2: ADI-24854 (antibody, V domains shown)
VH: EVQLVESGGGLVKPGGSLRLSCAASGFTFSSYSMNWVRQAPGKGLEWVSSISSSSSYIYYADSVKGRFTISRDNAKNSLYLQMNSLRAEDTAVYYCARDRRFGELFYFDYWGQGTLVTVSS
VL: QSVLTQPPSVSGAPGQRVTISCTGSSSNIGAGYDVHWYQQLPGTAPKLLIYGNSNRPSGVPDRFSGSKSGTSASLAITGLQAEDEADYYCQSYDSSLSGNWVFGGGTKLTVL
notes: full-length IgG
B3: ADI-25491 (antibody, V domains shown)
VH: EVQLLESGPGLVKPSQTLSLTCTVSGGSISSGGYYWSWIRQHPGKGLEWIGYIYYSGSTYYNPSLKSRVTISVDTSKNQFSLKLSSVTAADTAVYYCAREVVPAAIRAGYYFDYWGQGTLVTVSS
VL: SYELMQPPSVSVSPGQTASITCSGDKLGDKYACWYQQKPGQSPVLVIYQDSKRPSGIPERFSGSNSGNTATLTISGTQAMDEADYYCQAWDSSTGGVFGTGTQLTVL
notes: full-length IgG
B4: ADI-22756 (antibody, V domains shown)
VH: EVQLLESGGGVVQPGRSLRLSCVASGFTFSTYGVHWVRQAPGKGLEWVAVISYDGANKDYADSVKGRFTISRDNSKNTLYLQMNSLRAEDTAVYYCAKMITRVLPGGFDRWGQGTLVTVSS
VL: EIVMTQSPGTLSLSPGERATLSCRASQSVSSAYLAWYQQKPGQAPRLLIYDASRRATGIPDRFSGSGSGTDFTLTISRLEPEDFAVYYCQQYGSSRFTFGQGTKVEIK
notes: full-length IgG
B5: ADI-24798 (antibody, V domains shown)
VH: EVQLLESGPGLVKPSETLSLTCTVSGGSISSYYWSWIRQPPGKGLEWIGYIYYSGSTNYNPSLKSRVTISVDTSKNQFSLKLSSVTAADTAVYYCARILGHCSGGSCYRIIDYWGQGTLVTVSS
VL: not shown
notes: full-length IgG
B6: ADI-24841 (antibody, V domains shown)
VH: QVQLVQSGAEVKKPGASVKVSCKASGYTFTSYAMHWVRQAPGQRLEWMGWINAGNGNTKYSQKFQGRVTITRDTSASTAYMELSSLRSEDTAVYYCARDGFPTNYDFWSGYSDDAFDIWGQGTMVTVSS
VL: not shown
notes: full-length IgG
B7: ADI-25518 (antibody, V domains shown)
VH: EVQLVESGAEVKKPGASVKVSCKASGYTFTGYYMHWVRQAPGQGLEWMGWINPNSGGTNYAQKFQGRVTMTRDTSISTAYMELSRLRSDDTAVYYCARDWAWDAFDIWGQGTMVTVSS
VL: QSVLIQPASVSGSPGQSITISCTGTSSDVGGYNYVSWYQQHPGKAPKLMIYDVSNRPSGVSNRFSGSKSGNTASLTISGLQAEDEADYYCSSYTSSSTLVFGGGTQLTVL
notes: full-length IgG
B8: ADI-14363 (antibody, V domains shown)
VH: QVQLVESGGGLVKPGGSLRLSCAASGFTFSDYYMSWIRQAPGKGLEWVSYISGGGTYTKYADSVKGRFTISRDNAKNSVYLQMNSLRAEDTAVYYCARDVALVGWELRYGMDVWGQGTTVTVSS
VL: ETTLTQSPGTLSLSPGERATLSCRARENVNSSYLAWYQQKPGQAPRLLIYGASSRATGIPDRFSGSGSGTDFTLTISRLEPEDFAVYYCQQYAISPWTFGQGTKVEIK
notes: full-length IgG; also called Ab 31
B9: ADI-14591 (antibody, V domains shown)
VH: QVQLVQSGAEVKKPGESLRISCTGSGYTFTNYWISWVRQMPGKGLEWMGRIDPTDSYTNYSPSFQGHVTISADKSISTAYLQSSSLKASDTATYYCARHRRLVPAAMSRGYYGMDVWGQGTTVTVSS
VL: EIVMTQSPSSLSASVGDRATITCRASQSISSYLNWYQQKPGKAPKLLIYAASNLQSGAPSRFSGSGSGTDFTLTISSLQPEDFATYFCQQTYSTPYTFGQGTKVEIK
notes: also called Ab 120
B10: ADI-14603 (antibody, V domains shown)
VH: QVQLVQSGAEVKKPGESLKISCKGSGYTFTNYWIGWVRQMPGKGLEWMGIIYPGDSDTRYSPSFQGQVTISADKSITTAYLQWRVLKASDTAMYYCATMRGSSSHFHHWGQGTLVTVSS
VL: DIQVTQSPSSLSASVGDRVTITCRAGQGIGNYLAWYQQKPGKVPKVLIYAASTLQSGVPSRFSGSGSGTEFTLTISSLQPEDVATYYCQKYNNAPYAFGQGTRLEIK
notes: also called Ab 131
B11: ADI-14403 (antibody, V domains shown)
VH: QVQLVESGGGLGKPGGSLRLSCAASGFTFSGYYMSWIRQAPGKGLEWVSDISSGSSFTNYADSVKGRFTISRDNAKNSLYLQMNSLKAEDTAVYYCARVPPDSYGSGSYSGDSWGQGTLVTVSS
VL: QSVVTQPPSVSGAPGQRVTISCTGSSSNIGAGYGVHWYQQLPGTAPKLLIYGNTNRPSGVPDRISGSKSGTSASLVITGLQAEDEADYYCQSYDSSLSGWVFGGGTKLTVL
notes: also called Ab 69
B12: ADI-14587 (antibody, V domains shown)
VH: EVQLLESGGGLVKPGGSLRLSCAASGFTLTSYSMNWVRQAPGKGLEWVSSISSSSSYIHYADSVKGRFTISRDNAKNSLYLQMNSLRAEDTAVYYCAGSSLYPPFFDYWGQGTLVTVSS
VL: QSVVTQPPSVSGAPGQRVTISCTGSSSNLGAGYDVHWYQQLPGTAPKLLIYGNNNRPSGVPDRFSGSKSGTSASLAITGLQAEDEADYYCQSYDSSLSSVVFGGGTKLTVL
B13: ADI-14586 (antibody, V domains shown)
VH: QVQLVQSGGGLVKPGGSLRLSCAASGFTFSDYYMSWIRQAPGKGLEWVSYISSSSSYTNYADSVKGRFTISRDNAKNSLYLQMNSLRAEDTAVYYCAKRTEYCSSTGCAYYFDYWGQGTLVTVSS
VL: QSVVTQPPSVSGAPGQRVTISCTGSSSNIGAGYDVHWYQQLPGTAPKLLIYGNSNRPSGVPDRFSGSKSGTSASLAITGLQAEDEADYYCQSYDSSLSGSVFGGGTKVTVL
B14: ADI-14601 (antibody, V domains shown)
VH: EVQLLESGGGLVQPGGSLRLSCAASGFTFSSYAMNWVRQAPGKGLEWVSTISGSGSSTYYADSVEGRFTISRDNSKNTLYLQMNSLRAEDTAIYYCAKEPRDMYIQQWLDSWGQGTLVTVSS
VL: GIRLTQSPSSVSASVGDRVIITCRASQGIRSWLAWYQQKPGKAPKLLIYAASRLQSGVPSRFSGSGSETDFTLTISSLQPEDFASYYCQQANSFPLTFGGGTKVEIK
B15: ADI-14428 (antibody, V domains shown)
VH: EVQLLESGGGLVKPGGSLRLSCAASGFTFSDHYMSWIRQAPGKGLEWVSYISSTSSFTNYADSLKGRFTISRDNAKNSLYLQMNSLRAEDTAVYYCARPYIVALGTRAFDIWGQGTTVTVSS
VL: SYVLTQPPSVSVAPGKTARITCGGNNIGSKTVHWYQQKPGQAPVLVSYYDSDRPSGIPERFSGSNSGNTATLTISRVEAGDEADYYCQVWDGSSEHYVFGTGTKVTVL
notes: also called Ab 94
B16: ADI-14402 (antibody, V domains shown)
VH: QVQLVQSGAEVKKPGASVKVSCKTSGYTFTNYGISWVRQAPGQGLEWMGWISAYNGNRNYAQKLQGRVTMTTDTSTSTAYMELRSLRSDDTAVYYCAREPPVIAAGDFSHWGQGTLVTVSS
VL: EIVLTQSPLSLPVTLGQPASISCRSSQSLVHSDANTYLSWFQQRPGQSPRRLIYKVSNRDSGVPDRFSGSGSGTDFTLKISRVEAEDVGVYYCMQGTHWPPDFGQGTRLEIK
notes: also called Ab 68
B17: ADI-14583 (antibody, V domains shown)
VH: QVQLVQSGAEVKEPGASVKVSCKASGYTFTNYGISWVRQAPGQGLEWLGWISAYNGNIHYAQKVQGRVTMTTDTSTSTGFMELRSLRSDDTAVYYCAREPPVIAAGDFQHWGQGTLVTVSS
VL: ETTLTQSPLSLPVTLGQPASISCRSSQSLVHSNGNTYLSWFQQRPGQSPRRLIYRVSNRDSGVPDRFSGSGSGTDFTLKISRVEAEDVGLYYCMQGTHWPPDFGQGTRLEIK
B18: ADI-14585 (antibody, V domains shown)
VH: QVQLVQSGAEVKKPGASVKVSCKASGYTFANYGIGWVRQAPGQGLEWMGWISAYNGKTNYAQKFQGRVTMTTDTSTSTAYMELRSLRSDDTAVYYCAREPPVIAAGDFPHWGQGTLVTVSS
VL: ETTLTQSPLSLPVTLGQPASISCRSSQSLEHSDLNTYLSWFQQRPGQSPRRLIYKVSNRDSGVPDRFSGSGSGTDFTLRISRVEAEDVGVYYCMQGTHWPPDFGQGTRLEIK
B19: ADI-14588 (antibody, V domains shown)
VH: QVQLVQSGAEVKKPGASVKVSCKVSGDTLTELSIHWVRQAPGKGHEWMGYFDHEDGEIMYAQKFQGRVTMTGDTSTDTAYMELSSLRSEDTAVYYCATVAAAGQFDYWGQGTLVTVSS
VL: DIQLTQSPSSLSASVGDRVTITCRARQSISTYLNWYQQKPGKAPKLLIYAASSLQSGVPSRFSGSGSGTDFTLTISSLQPEDFATYYCQQSYSSPYTFGQGTKVDIK
B20: ADI-14580 (antibody, V domains shown)
VH: QVQLVQSGAEVKKPGSSVKVSCKASGGTFSSYTINWVRQAPGQGLEWMGRIIPVLGMASYVQNFQGRVSITADESTSTAYMELSSLTSEDTALYYCAKGAVAAANDVFDVWGQGTTVTVSS
VL: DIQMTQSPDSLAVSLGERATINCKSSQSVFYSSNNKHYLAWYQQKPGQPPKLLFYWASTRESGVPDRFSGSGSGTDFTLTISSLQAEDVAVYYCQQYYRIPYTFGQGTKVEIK
B21: ADI-14424 (antibody, V domains shown)
VH: QVQLVQSGAEVKKPGESLKISCKGPDSSFSVYWIAWVRQMPGKGLEWMGVIYVGDSDTRYSPSFRGQVTISADKSMNTAYLQWSSLKASDTAMYFCARHIPPGPFDLWGQGTMVTVSS
VL: NFMLTQPHSVSASPGKTITISCTRSSGSIASNSVQWYQQRPGSAPTNVIYEDDQRPLGVPNRFSGSIDSSSNSASLTISGLKTEDEADYYCHSYHNSDQVFGGGTKLTVL
notes: also called Ab 90
B22: ADI-14582 (antibody, V domains shown)
VH: QVQLVQSGAEVKKPGESLKISCKGPDSSFSVYWIAWVRQMPGKGLEWMGVIYVGDSDTRYSPSFRGQVTISADKSINTAYLQWSSLKASDTAMYFCARHIPPGPFDLWGQGTTVTVSS
VL: NFMLTQPHSVSASPGKTITISCTRSSGSIASNSVQWYQQRPGSAPTNVIYEDNQRPLGVPNRFSGSIDSSSNSASLTISGLKTEDEADYYCQSYHSSDQVFGGGTKVTVL
B23: ADI-14581 (antibody, V domains shown)
VH: QVQLVQSGAEVKKPGSSVKVSCKASGGTFSSHAFSWVRQAPGQGLEWMGGIIPSLNTANYAQKFQGRVSITADESTGTAYMELSSLRSDDTAVYFCAREVFGYGYYFDYWGQGTLVTVSS
VL: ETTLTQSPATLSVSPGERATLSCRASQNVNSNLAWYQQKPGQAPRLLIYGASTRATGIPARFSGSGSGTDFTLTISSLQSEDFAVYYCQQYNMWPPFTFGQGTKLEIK
notes: also called Ab 110
B24: ADI-14412 (antibody, V domains shown)
VH: QVQLVQSGAEVKKPGASVKVSCKASGYTFTRYGISWVRQAPGQGLEWMGWISDYNGNTKNAEKFQGRVTMTTDTYTNIAYMELRSLRSDDTAVYYCARDWWITVGGIIAPFDYWGQGTLVTVSS
VL: ETTLTQSPGTLSLSPGERATLSCRASQSVSSDYLAWFQQKPGQAPRLLIYGASSRATDIPDRFSGSGSGTDFTLTISRLESEDFAVYYCLHYAGARTFGQGTKVEIK
notes: also called Ab 78

The binders below were run against T1, RSV prefusion F (preF), subtype B (respiratory syncytial virus subtype B) (assay: BLI, IgG).
T1 construct: also called Prefusion subtype B
Binder B1 has a Kd of 10.8 nM. B2 was tested, and the Kd was 30.3 nM. B3 gave a Kd of 21.9 nM. B4 showed a Kd of 55.8 nM. B5 showed a Kd of 5.27 nM. In the case of B6, the Kd is reported as 26.6 nM. In the case of B7, the Kd is reported as 39.5 nM. B8 showed a Kd of 5.35 nM.

What follows are binders tested against RSV prefusion F (preF), subtype B (respiratory syncytial virus, subtype B) (assay: BLI, IgG).
In the case of B9, the Kd is reported as 0.554 nM. In the case of B10, the Kd is reported as 30.5 nM. B11 was tested, and the Kd was 0.699 nM. B12 gave a Kd of 0.833 nM. With B13 the Kd was 6.7 nM. Work on B14 yielded a Kd of 1.96 nM. B15 was tested, and the Kd was 14.1 nM. B16 was tested, and the Kd was 0.416 nM. B17 showed a Kd of 1.59 nM. In the case of B18, the Kd is reported as 0.449 nM. B19 was tested, and the Kd was 1.48 nM. For B20, the Kd was 4.54 nM. B21 was tested, and the Kd was 1.9 nM. Work on B22 yielded a Kd of 1.81 nM. B23 gave a Kd of 2.88 nM. B24 showed a Kd of 13.4 nM.

— patent US20260258115A1 (MAPP BIOPHARMACEUTICAL, published 2026)
